Laboratory results published in US20190055510A1, “WELL PLATE-BASED PERFUSION CULTURE MODEL OF ENDOSTEAL-EXTRACELLULAR MATRIX (ECM)-AND ENDOTHELIAL-MYELOMA INTERACTIONS AND METHODS FOR TESTING PERSONALIZED THERAPEUTICS FOR MULTIPLE MYELOMA” (Hackensack University Medical Center, priority 2016, published 2019).

What was measured:
Assay type in all cases: cell-based, human
CD138+ PMMCs [1] = assay: Drug response of CD138+ PMMCs co-cultured with osteoblast (OSB) tissue in 96-well plate-based perfusion culture, viability by flow cytometry; conditions: cultured with OSBs
Method: Using the 96-well plate-based culture platform described in Example 2, osteoblasts (OSBs) (hFOB 1.19 cell line) were cultured for 4 days at 20% O2 tension to form an ossified tissue structure. Patient bone marrow mononuclear cells (BMMCs) containing PMMCs, were seeded on the ossified tissue structure and cultured for up to 5 weeks. […] When O2 tension was decreased to 1%, the proliferation rate of PMMCs decreased (FIG. 2C) while their viability was not compromised (data not shown). […] PMMCs also acquired cell adhesion mediated drug resistance (CAM-DR) due to the adhesive interactions with OSBs.
The response of PMMCs to two commonly used drugs to treat MM patients: (1) carfilzomib, a proteasome inhibitor; and (2) melphalan, which is often used to treat newly diagnosed MM patients along with stem-cell transplantation, was evaluated. OSB tissue was cultured for 4 days either at 1 or 20% O2 prior to seeding of PMMCs. After seeding, PMMC-OSB cultures were dosed with either carfilizomib or melphalan. After 24 h, flow cytometry was used to analyze the viability of CD138+PMMCs. […] Dual Inhibition Of Mcl-1 By The Combination Of Carfilzomib and TG02 In Multiple Myeloma, (2013)). […] British journal of haematology 152, 579-592, doi:10.1111/j.1365-2141.2010.08533.x. (2011); Xiang, Y. et al. Monitoring a Nuclear Factor-κB Signature of Drug Resistance in Multiple Myeloma. […]

CD138+ PMMCs [2] = assay: Drug response of CD138+ PMMCs cultured in fibrin; conditions: in contrast to culture with OSBs (FIG. 3B)
Method: The response of PMMCs to two commonly used drugs to treat MM patients: (1) carfilzomib, a proteasome inhibitor; and (2) melphalan, which is often used to treat newly diagnosed MM patients along with stem-cell transplantation, was evaluated. OSB tissue was cultured for 4 days either at 1 or 20% O2 prior to seeding of PMMCs. After seeding, PMMC-OSB cultures were dosed with either carfilizomib or melphalan. After 24 h, flow cytometry was used to analyze the viability of CD138+PMMCs. […] Dual Inhibition Of Mcl-1 By The Combination Of Carfilzomib and TG02 In Multiple Myeloma, (2013)). […] British journal of haematology 152, 579-592, doi:10.1111/j.1365-2141.2010.08533.x. (2011); Xiang, Y. et al. Monitoring a Nuclear Factor-κB Signature of Drug Resistance in Multiple Myeloma. Molecular & Cellular Proteomics 10, doi:10.1074/mcp.M110.005520 (2011)).
In this study, fibrin was used to reconstruct extracellular matrix (ECM) niche tissue containing patient bone marrow mononuclear cells (BMMCs). […]

3D-osteocytes (OSTs) = assay: Continuous PTH treatment of 3D-reconstructed osteocytes, relative gene expression; conditions: 50 nM PTH for 2 days, compared to no treatment and 2D-OSTs controls (FIG. 4F)
Excerpt: Cells and biphasic calcium phosphate (BCP) or polystyrene (PS) microbeads in the range of 20-25 μm (i.e, 20 μm, 21 μm, 22 μm, 23 μm, 24 μm and 25 μm) in diameter were assembled into the culture chamber, via forced liquid withdrawal through the PC membrane, to form a close-packed structure (FIG. 1). […] The cells entrapped within the interstitial spaces between the microbeads formed a 3D cellular network by extending and connecting their processes through openings between the microbeads over 2 weeks. […] The observed O2 tension effects are similar to those reported on the osteocytic differentiation of OSBs (Hirao, M. et al. Oxygen tension is an important mediator of the transformation of osteoblasts to osteocytes. Journal of bone and mineral metabolism 25, 266-276, doi:10.1007/s00774-007-0765-9 (2007); Chen, D. et al. HIF-1alpha inhibits Wnt signaling pathway by activating Sost expression in osteoblasts. PloS one 8, e65940, doi:10.1371/journal.pone.0065940 (2013); Clinkenbeard, E. L. et al. Neonatal iron deficiency causes abnormal phosphate metabolism by elevating FGF23 in normal and ADHR mice. Journal of bone and mineral research: the official journal of the American Society for Bone and Mineral Research 29, 361-369, doi:10.1002/jbmr.2049 (2014)).
In order to characterize the regulatory functions of 3D-osteocytes (OSTs) on osteoclastogenesis and osteoblastic development, the effects of continuous parathyroid hormone (PTH) treatment was evaluated.

Molecule: CC(C)C[C@H](NC(=O)[C@H](CCc1ccccc1)NC(=O)CN1CCOCC1)C(=O)N[C@@H](Cc1ccccc1)C(=O)N[C@@H](CC(C)C)C(=O)[C@@]1(C)CO1 [carfilzomib]
- response (viability) of CD138+ PMMCs to carfilzomib (CD138+ PMMCs [1]; 100 nM carfilzomib, 20% O2, 24 h, flow cytometry (FIG. 3A)): significant resistance

Molecule: N[C@@H](Cc1ccc(N(CCCl)CCCl)cc1)C(=O)O [melphalan]
- response (viability) of CD138+ PMMCs to melphalan (CD138+ PMMCs [1]; 100 μM melphalan, both 1 and 20% O2, 24 h, flow cytometry (FIG. 3B)): highly resistant
- sensitivity of CD138+ PMMCs to melphalan (CD138+ PMMCs [2]): significantly more sensitive

B1: parathyroid hormone (protein, UniProt P01270 32-115, looked up)
Parathyroid hormone: SVSEIQLMHNLGKHLNSMERVEWLRKKLQDVHNFVALGAPLAPRDAGSQRPRKKEDNVLVESHEKSLGEADKADVNVLTKAKSQ
modifications: Parathyroid hormone
notes: parathyroid hormone, known to induce OSTs to increase RANKL and decrease OPG and SOST gene expression
- FGF23 gene expression (3D-osteocytes (OSTs)): decreased
- OPG gene expression (3D-osteocytes (OSTs)): decreased
- RANKL gene expression (3D-osteocytes (OSTs)): increased
- SOST gene expression (3D-osteocytes (OSTs)): decreased
